Experimental data taken from the supplement of paper PMC10201428.
± gives the standard deviation of the averaged measurements.

Key:
[1] = test system: VchCAST RNA-guided transposition machinery (E. coli BL21(DE3) host, lacZ target); assay: relative integration efficiency (T-RL orientation) vs wild-type transposon end (log2 (normalized fold change)); transposon end mutated: right end (5 bp flank + 75 bp right end); higher = more efficient transposition
How it was run: (§1)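 Co-transformation of E. coli BL21(DE3) combined a pUC57 mini-transposon donor, holding barcoded pools of 1549 left-end or 1849 right-end variants, with a T7-driven plasmid encoding a CRISPR array, tniQ-cas8-cas7-cas6 and tnsA-tnsB-tnsC. After plating with 0.1 mM IPTG at 37°C for 18 h, input plasmids and genomic integration junctions were PCR-amplified and Illumina-sequenced across two biological output replicates, with four reference barcodes. Relative integration efficiency is the normalised, log-transformed output/input barcode fold change.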

[2] = test system: VchCAST RNA-guided transposition machinery (E. coli BL21(DE3) host, lacZ target); assay: relative integration efficiency (T-LR orientation) vs wild-type transposon end (log2 (normalized fold change)); transposon end mutated: right end (5 bp flank + 75 bp right end); higher = more efficient transposition
How it was run: as §1

Sequence	relative integration efficiency (log2) [1]	relative integration efficiency (log2) [2]
ACATTTGTTGATCACCCCATAAAATGATAATTACACCCATAAATTGATAATTATCACACCCATAAATTGATATTGCCTCTGATCATAGTCAGACCAACATTGCTACGACCCGTATTCGCACCGACAC	-0.839 ± 0.08	-1.51 ± 0.22
ACATTTGTTGATCCAACCATAAAATGATAATTACACCCATAAATGGATAATTATCACACCCAATTTAACTATAACGCTCTGATCATAGTCAGACCAACATTGCTACGACCCGTATTCGCACCGACAC	-1.51 ± 0.15	1.15 ± 0.043
ACATTTGTTGATCCAACCATAAAATGATAATTACACCCATAAATGGATCATTATCACACCCAATTTAACTATAACGCTCTGATCATAGTCAGACCAACATTGCTACGACCCGTATTCGCACCGACAC	-1.74 ± 0.32	1.13 ± 0.26
ACATTTGTTGATCCAACCATAAAATGATAATTACACCCATAAATTCATAATTATCACACCCAATTTAACTATAACGCTCTGATCATAGTCAGACCAACATTGCTACGACCCGTATTCGCACCGACAC	-2.07 ± 0.2	0.916 ± 0.17
ACATTTGTTGATCCAACCATAAAATGATAATTACACCCATAAATTCATCATTATCACACCCAATTTAACTATAACGCTCTGATCATAGTCAGACCAACATTGCTACGACCCGTATTCGCACCGACAC	-2.42 ± 0.5	1.23 ± 0.14
ACATTTGTTGATCCAACCATAAAATGATAATTACACCCATAAATTGATCATTATCACACCCAATTTAACTATAACGCTCTGATCATAGTCAGACCAACATTGCTACGACCCGTATTCGCACCGACAC	-1.7 ± 0.3	1.98 ± 0.02
ACATTTGTTGATTGAACCATAAAATGATAATTACACCCATAAATTGATAATTATCACACCCATAAATTGATATTGCCTCTGATCATAGTCAGACCAACATTGCTACGACCCGTATTCGCACCGACAC	-0.172 ± 0.032	-1.4 ± 0.71
ACATTTGTTGATTGTTCCATAAAATGATAATTACACCCATAAATTGATAATTATCACACCCATAAATTGATATTGCCTCTGATCATAGTCAGACCAACATTGCTACGACCCGTATTCGCACCGACAC	-1.3 ± 0.19	-1.3 ± 0.53
ACATTTGTTGCGACAACCATAAAATGATAATTACACCCATAAATTGATAATTATCACACCCATAAATTGATATTGCCTCTGATCATAGTCAGACCAACATTGCTACGACCCGTATTCGCACCGACAC	-0.447 ± 0.038	-1.69 ± 0.07
ACATTTGTTGCGCAAACCATAAAATGATAATTACACCCATAAATTGATAATTATCACACCCATAAATTGATATTGCCTCTGATCATAGTCAGACCAACATTGCTACGACCCGTATTCGCACCGACAC	-0.839 ± 0.087	-2.91 ± 0.35
ACATTTGTTGTAACAACCATAAAATGATAATTACACCCATAAATTGATAATTATCACACCCATAAATTGATATTGCCTCTGATCATAGTCAGACCAACATTGCTACGACCCGTATTCGCACCGACAC	-0.2 ± 0.038	-1.09 ± 0.54
ACATTTGTTGTATGAACCATAAAATGATAATTACACCCATAAATTGATAATTATCACACCCATAAATTGATATTGCCTCTGATCATAGTCAGACCAACATTGCTACGACCCGTATTCGCACCGACAC	-0.782 ± 0.022	-2.29 ± 0.23
ACATTTGTTTATACAACCATAAAATGATAATTACACCCATAAATGGATAATTATCACACCCAATTTAACTATAACGCTCTGATCATAGTCAGACCAACATTGCTACGACCCGTATTCGCACCGACAC	-1.86 ± 0.27	-0.232 ± 0.5
ACATTTGTTTATACAACCATAAAATGATAATTACACCCATAAATGGATTATTATCACACCCAATTTAACTATAACGCTCTGATCATAGTCAGACCAACATTGCTACGACCCGTATTCGCACCGACAC	-2.39 ± 0.61	-1.01 ± 0.12
ACATTTGTTTATACAACCATAAAATGATAATTACACCCATAAATTCATAATTATCACACCCAATTTAACTATAACGCTCTGATCATAGTCAGACCAACATTGCTACGACCCGTATTCGCACCGACAC	-2.45 ± 0.3	-0.939 ± 0.036
ACATTTGTTTATACAACCATAAAATGATAATTACACCCATAAATTCATTATTATCACACCCAATTTAACTATAACGCTCTGATCATAGTCAGACCAACATTGCTACGACCCGTATTCGCACCGACAC	-3.21 ± 0.16	-0.961 ± 0.16
ACATTTGTTTATACAACCATAAAATGATAATTACACCCATAAATTTATAATTATCACACCCAATTTAACTATAACGCTCTGATCATAGTCAGACCAACATTGCTACGACCCGTATTCGCACCGACAC	-1.89 ± 0.13	0.00132 ± 0.14
ACATTTGTTTATACAACCATAAAATGATAATTACACCCATAAATTTATTATTATCACACCCAATTTAACTATAACGCTCTGATCATAGTCAGACCAACATTGCTACGACCCGTATTCGCACCGACAC	-2.66 ± 0.6	-0.334 ± 0.058

Sequence	relative integration efficiency (log2) [1]	relative integration efficiency (log2) [2]
ACATTTGTTTCGCCAACCATAAAATGATAATTACACCCATAAATTGATAATTATCACACCCATAAATTGATATTGCCTCTGATCATAGTCAGACCAACATTGCTACGACCCGTATTCGCACCGACAC	-1.72 ± 0.26	-3.75 ± 0.98
ACATTTGTTTCTACAACCATAAAATGATAATTACACCCATAAATTGATAATTATCACACCCATAAATTGATATTGCCTCTGATCATAGTCAGACCAACATTGCTACGACCCGTATTCGCACCGACAC	-1.06 ± 0.14	-3.43 ± 0.18
ACATTTTGGTATACAACCATAAAATGATAATTACACCCATAAATTGATAATTATCACACCCATAAATTGATATTGCCTCTGATCATAGTCAGACCAACATTGCTACGACCCGTATTCGCACCGACAC	-5.963 ± 0.038	-6.61 ± 2.1
ACATTTTGTGATACAACCATAAAATGATAATTACACCCATAAATTGATAATTATCACACCCATAAATTGATATTGCCTCTGATCATAGTCAGACCAACATTGCTACGACCCGTATTCGCACCGACAC	-6.54 ± 0.24	< -10
ACCGGGGTTGATACAACCATAAAATGATAATTACACCCATAAATTGATAATTATCACACCCATAAATTGATATTGCCTCTGATCATAGTCAGACCAACATTGCTACGACCCGTATTCGCACCGACAC	-6.81 ± 0.49	-5.64 ± 0.3
ACCGTTGTTGATACAACCATAAAATGATAATTACACCCATAAATTGATAATTATCACACCCATAAATTGATATTGCCTCTGATCATAGTCAGACCAACATTGCTACGACCCGTATTCGCACCGACAC	-0.00193 ± 0.024	0.612 ± 0.13
ACTAAAGTTGATACAACCATAAAATGATAATTACACCCATAAATTGATAATTATCACACCCATAAATTGATATTGCCTCTGATCATAGTCAGACCAACATTGCTACGACCCGTATTCGCACCGACAC	-6.65 ± 0.58	-4.99 ± 1.1
ACTATTGTTGATACAACCATAAAATGATAATTACACCCATAAATTGATAATTATCACACCCATAAATTGATATTGCCTCTGATCATAGTCAGACCAACATTGCTACGACCCGTATTCGCACCGACAC	0.151 ± 0.07	0.436 ± 0.12
AGTAATGTTGATACAACCATAAAATGATAATTACACCCATAAATTGATAATTATCACACCCATAAATTGATATTGCCTCTGATCATAGTCAGACCAACATTGCTACGACCCGTATTCGCACCGACAC	-0.121 ± 0.05	-0.0802 ± 0.26
AGTTTTGTTGATACAACCATAAAATGATAATTACACCCATAAATTGATAATTATCACACCCATAAATTGATATTGCCTCTGATCATAGTCAGACCAACATTGCTACGACCCGTATTCGCACCGACAC	0.00539 ± 0.033	0.122 ± 0.29
CAAAATGTAAAAAAAACCATACGTTGATTTTACCACCCATAAATTGATAATTAAAACAACCATACCTTGAAATTGCTTATAAAGTGTACAACACTTGAGAAAGTTTACTACAGGTATGCACCGACAC	-4.977 ± 0.011	-2.89 ± 0.71
CAAAATGTAAAAAAAACCATACGTTGATTTTACGAAACCATACGCTGAAATAAAAACAACCATACCTTGAAATTGCTTATGATCATAGTCAGACCAACATTGCTACGACCCGTATTCGCACCGACAC	-6.15 ± 0.21	-4.98 ± 2.3
CAAAATGTAAAAAAAACCATACGTTGATTTTACGAAACCATACGCTGAAATAAAAACACCCATAAATTGATATTGCTTATAAAGTGTACAACACTTGAGAAAGTTTACTACAGGTATGCACCGACAC	-8.17 ± 0.95	< -10
CAAAATGTAAAAAAAACCATACGTTGATTTTACGAAACCATACGCTGAAATAATCACAACCATACCTTGAAATTGCTTATAAAGTGTACAACACTTGAGAAAGTTTACTACAGGTATGCACCGACAC	< -10	< -10
CAAAATGTAAAAACAACCATAAAATGATAATTAGAAACCATACGCTGAAATAAAAACAACCATACCTTGAAATTGCTTATAAAGTGTACAACACTTGAGAAAGTTTACTACAGGTATGCACCGACAC	-0.449 ± 0.47	2.48 ± 0.26
CAAAATGTTGATACAACCATAAAATGATAATTACACCCATAAATTGATAATTATCACACCCATAAATTGATATTGCCTCTGATCATAGTCAGACCAACATTGCTACGACCCGTATTCGCACCGACAC	-0.331 ± 0.081	-0.0192 ± 0.23
CAATTTGTTGATACAACCATAAAATGATAATTACACCCATAAATTGATAATTATCACACCCATAAATTGATATTGCCTCTGATCATAGTCAGACCAACATTGCTACGACCCGTATTCGCACCGACAC	-0.1076 ± 0.00032	0.164 ± 0.0064
